{
  "source": "patent US20160115247A1",
  "about": "“SINGLE DOMAIN ANTIBODIES DIRECTED AGAINST INTRACELLULAR ANTIGENS” (SINGH BIOTECHNOLOGY, LLC, priority 2014, published 2016)",
  "key": {"TNF-alpha": {"biological_target": "T1, TNF-alpha (Homo sapiens, UniProt P01375)", "T1 construct": "host or cells: added to U937 cells", "T1 sequence (P01375 77-233 limits assumed)": "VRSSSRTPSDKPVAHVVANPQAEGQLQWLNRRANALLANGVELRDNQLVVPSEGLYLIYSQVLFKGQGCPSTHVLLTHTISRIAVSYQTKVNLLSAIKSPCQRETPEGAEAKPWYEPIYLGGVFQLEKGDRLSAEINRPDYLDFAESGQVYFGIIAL", "assay": "Inhibition of TNF-alpha cytotoxicity in U937 cells", "assay_type": "cell-based", "conditions": "constant dose of TNF-alpha at EC50; for inhibition of killing of U937 by TNF-alpha (in words): FIG. 14"}, "MDA-MB-231 cells": {"system": "MDA-MB-231 cells", "assay": "MTT proliferation assay, MDA-MB-231;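 further: human cancer cells kept at 37 °C in humidified 5% CO2, with treated groups compared against a vehicle control group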", "assay_type": "cell-based, human"}, "PANC-1 cells": {"system": "PANC-1 cells", "assay": "MTT proliferation assay, PANC-1", "assay_type": "cell-based, human", "conditions": "for Mean Absorbance (570 nM) ± S.E.: single experiments 1-3"}},
  "note": "Where “and” joins values, the source holds several entries; their conditions need not be identical. Equal entries are not always repeated.",
  "data": [
    {"molecule": "anti-TNF-alpha VHH62: anti-TNF-alpha sdAb, SEQ ID NO. 47 (protein, camelid) VHH: QVQLVESGGGPVQAGETLRLSCTASGFTFAEADMGWYRQAPGHECELVSTITTEGITSEASSYYADSVRGRFTISRDNAKNMVYLQMNSLKPEDTAVYYCAPDPYAYSTYSDYCSWAQGTQGTLVTVSS", "values": [
      {"measurement": "IC50 (inhibition of TNF-alpha cytotoxicity against U937)", "setting": "TNF-alpha", "value": "approximately 713.6 ug/ml"},
      {"measurement": "inhibition of killing of U937 by TNF-alpha (in words)", "setting": "TNF-alpha", "value": "inhibit killing of U937 by TNF-alpha"}
    ]},
    {"molecule": "anti-TNF-alpha VHH69: anti-TNF-alpha sdAb, SEQ ID NO. 46 (protein, camelid) VHH: EVQLVESGGGSVLAGGSLRLSCVASGFTSRYNYMAWFRQAPGKEREGVATIGTASGSADYYGSVKDRFTISQDNAKNTVYLQMNSLKPEDTAMYYCAARTYGTISLTPSDYRYWGQGTLVTVSS", "values": [
      {"measurement": "IC50 (inhibition of TNF-alpha cytotoxicity against U937)", "setting": "TNF-alpha", "value": "greater than 208.055 ug/ml"},
      {"measurement": "inhibition of killing of U937 by TNF-alpha (in words)", "setting": "TNF-alpha", "value": "inhibit killing of U937 by TNF-alpha"}
    ]},
    {"molecule": "B.VHH14: anti-STAT3 single-domain antibody VHH14, SEQ ID NO. 4 (protein, camelid) VHH: QVQLVESGGGSVQAGGSLRLSCVASTYTGCMGWFRQAPGKEREGVAALSSRGFAGHYTDSVKGRFSISRDYVKNAVYLQMNTVKPEDAAMYYCAAREGWECGETWLDRTAGGHTYWGQGTLVTVSS", "values": [
      {"measurement": "% Inhibition of cell proliferation", "setting": "MDA-MB-231 cells; 3 days of treatment, 10.0 μg/ml", "value": 23.1, "unit": "%"},
      {"measurement": "% Inhibition of cell proliferation", "setting": "MDA-MB-231 cells; 3 days of treatment, 100.0 μg/ml", "value": 57.0, "unit": "%"},
      {"measurement": "% Inhibition of cell proliferation", "setting": "MDA-MB-231 cells; 5 days of treatment, 0.5 μg/ml", "value": 0, "unit": "%"},
      {"measurement": "% Inhibition of cell proliferation", "setting": "MDA-MB-231 cells; 5 days of treatment, 1.0 μg/ml", "value": 0, "unit": "%"},
      {"measurement": "% Inhibition of cell proliferation", "setting": "MDA-MB-231 cells; 5 days of treatment, 10.0 μg/ml", "value": 5.5, "unit": "%"},
      {"measurement": "% Inhibition of cell proliferation", "setting": "MDA-MB-231 cells; 5 days of treatment, 100.0 μg/ml", "value": 18.9, "unit": "%"},
      {"measurement": "Mean Absorbance (570 nM) ± S.E.", "setting": "MDA-MB-231 cells; Day 3 post treatment, 0.5 μg/ml", "value": "0.666 ± 0.022"},
      {"measurement": "Mean Absorbance (570 nM) ± S.E.", "setting": "MDA-MB-231 cells; Day 3 post treatment, 1.0 μg/ml", "value": "0.644 ± 0.045"},
      {"measurement": "Mean Absorbance (570 nM) ± S.E.", "setting": "MDA-MB-231 cells; Day 3 post treatment, 10.0 μg/ml", "value": "0.456 ± 0.048"},
      {"measurement": "Mean Absorbance (570 nM) ± S.E.", "setting": "MDA-MB-231 cells; Day 3 post treatment, 100 μg/ml", "value": "0.255 ± 0.005"},
      {"measurement": "Mean Absorbance (570 nM) ± S.E.", "setting": "MDA-MB-231 cells; Day 5 post treatment, 0.5 μg/ml", "value": "0.733 ± 0.038"},
      {"measurement": "Mean Absorbance (570 nM) ± S.E.", "setting": "MDA-MB-231 cells; Day 5 post treatment, 1.0 μg/ml", "value": "0.794 ± 0.023"},
      {"measurement": "Mean Absorbance (570 nM) ± S.E.", "setting": "MDA-MB-231 cells; Day 5 post treatment, 10.0 μg/ml", "value": "0.640 ± 0.011"},
      {"measurement": "Mean Absorbance (570 nM) ± S.E.", "setting": "MDA-MB-231 cells; Day 5 post treatment, 100 μg/ml", "value": "0.549 ± 0.023"},
      {"measurement": "Mean Absorbance (570 nM) ± S.E., Overall Mean", "setting": "MDA-MB-231 cells; Table 6, Day 3, 10.0 μg/ml", "value": "0.504 ± 0.021"},
      {"measurement": "Mean Absorbance (570 nM) ± S.E.", "setting": "MDA-MB-231 cells; Table 6, Day 3, 10.0 μg/ml, single experiments 1-4", "value": "0.456 ± 0.048 and 0.499 ± 0.018 and 0.502 ± 0.048 and 0.559 ± 0.041"},
      {"measurement": "Mean Absorbance (570 nM) ± S.E., Overall Mean", "setting": "MDA-MB-231 cells; Table 6, Day 3, 100 μg/ml", "value": "0.302 ± 0.043"},
      {"measurement": "Mean Absorbance (570 nM) ± S.E.", "setting": "MDA-MB-231 cells; Table 6, Day 3, 100 μg/ml, single experiments 1-4", "value": "0.255 ± 0.005 and 0.357 ± 0.019 and 0.308 ± 0.021 and 0.287 ± 0.021"},
      {"measurement": "Mean Absorbance (570 nM) ± S.E., Overall Mean", "setting": "MDA-MB-231 cells; Table 7, Day 5, 10.0 μg/ml", "value": "0.688 ± 0.131"},
      {"measurement": "Mean Absorbance (570 nM) ± S.E., Overall Mean", "setting": "MDA-MB-231 cells; Table 7, Day 5, 100 μg/ml", "value": "0.475 ± 0.0690"},
      {"measurement": "Overall Average % Inhibition", "setting": "MDA-MB-231 cells; post 3 days, 10.0 μg/ml", "value": 26.2, "unit": "%"},
      {"measurement": "Mean Growth Inhibition", "setting": "MDA-MB-231 cells; post 3 days, 10.0 μg/ml, single experiments 1-4", "value": "23.1% and 20.0% and 38.5% and 23.3%"},
      {"measurement": "Overall Average % Inhibition", "setting": "MDA-MB-231 cells; post 3 days, 100 μg/ml", "value": 55.7, "unit": "%"},
      {"measurement": "Mean Growth Inhibition", "setting": "MDA-MB-231 cells; post 3 days, 100 μg/ml, single experiments 1-4", "value": "57.0% and 42.8% and 62.3% and 60.6%"},
      {"measurement": "Overall Average % Inhibition", "setting": "MDA-MB-231 cells; post 5 days, 10.0 μg/ml", "value": 14.9, "unit": "%"},
      {"measurement": "Overall Average % Inhibition", "setting": "MDA-MB-231 cells; post 5 days, 100 μg/ml", "value": 38.6, "unit": "%"}
    ]},
    {"molecule": "H.VHH14: anti-STAT3 sdAb VHH14, SEQ ID NO. 4 (protein, camelid) VHH: QVQLVESGGGSVQAGGSLRLSCVASTYTGCMGWFRQAPGKEREGVAALSSRGFAGHYTDSVKGRFSISRDYVKNAVYLQMNTVKPEDAAMYYCAAREGWECGETWLDRTAGGHTYWGQGTLVTVSS", "values": [
      {"measurement": "Mean Absorbance (570 nM) ± S.E., Overall Mean", "setting": "PANC-1 cells; Day 3, 10.0 μg/ml", "value": "1.089 ± 0.085"},
      {"measurement": "Mean Absorbance (570 nM) ± S.E.", "setting": "PANC-1 cells; Day 3, 10.0 μg/ml", "value": "0.920 ± 0.133 and 1.183 ± 0.114 and 1.163 ± 0.044"},
      {"measurement": "Mean Absorbance (570 nM) ± S.E., Overall Mean", "setting": "PANC-1 cells; Day 3, 100 μg/ml", "value": "0.906 ± 0.054"},
      {"measurement": "Mean Absorbance (570 nM) ± S.E.", "setting": "PANC-1 cells; Day 3, 100 μg/ml", "value": "0.808 ± 0.239 and 0.993 ± 0.088 and 0.916 ± 0.088"},
      {"measurement": "Mean Absorbance (570 nM) ± S.E., Overall Mean", "setting": "PANC-1 cells; Day 5, 10.0 μg/ml", "value": "1.368 ± 0.247"},
      {"measurement": "Mean Absorbance (570 nM) ± S.E.", "setting": "PANC-1 cells; Day 5, 10.0 μg/ml", "value": "1.859 ± 0.033 and 1.165 ± 0.015 and 1.081 ± 0.103"},
      {"measurement": "Mean Absorbance (570 nM) ± S.E., Overall Mean", "setting": "PANC-1 cells; Day 5, 100 μg/ml", "value": "0.754 ± 0.333"}
    ]}
  ]
}
